Results as given in US20100204147A1, “Methods For Delivering Thymosin Beta 4, Analogues, Isoforms and Other Derivatives” (REGENERX BIOPHARMACEUTICALS, INC., priority 2003, published 2010).

Target: T1, Aα392-610 sub-fragment (Homo sapiens, UniProt P02671)
T1 construct: (residues Aα221-391 and Aα392-610, respectively); made in house; host or cells: E. coli, pET20b expression vector
T1 sequence (P02671 411-629): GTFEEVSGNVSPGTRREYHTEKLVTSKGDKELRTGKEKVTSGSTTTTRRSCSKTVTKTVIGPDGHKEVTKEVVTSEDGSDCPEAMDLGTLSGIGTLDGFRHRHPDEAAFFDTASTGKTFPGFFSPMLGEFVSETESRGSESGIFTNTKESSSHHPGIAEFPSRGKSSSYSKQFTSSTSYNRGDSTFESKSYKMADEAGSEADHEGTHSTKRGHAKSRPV
Assay: ELISA and kinetic analysis of incorporation into immobilized Aα392-610 sub-fragment
Type: biochemical
Experimental: The interaction between thymosin β4 and fibrin(ogen) and its fragments in the presence or absence of FXIIIa was studies by ELISA using plastic microliter plates. Wells of microliter plates were coated overnight at […] with fibrinogen and fibrin at 10 μg/mL or with the recombinant fragments of 20 μg/ml, all in 0.1 M NaHCO3 buffer, pH 8.3. Fibrin was made by addition to the wells of a mixture containing 10 μg/mL fibrinogen 1 NIH u/ml thrombin and 400 u/ml aprotinin, followed by overnight incubation at +4° C. The wells were then blocked by incubation with Super Blocker (Pierce) at 37° C. for 1 h. Following washing with TBS containing 0.05% Tween-20 (TBS-Tween), the indicated concentrations of thymosin β4, FXIII, FXIIIa(Thr) and FXIIIa(Ca) were added to the wells and incubated for 2-2.5 h at 37° C. Bound (incorporated) thymosin β4 was detected by the reaction with rabbit anti-thymosin β4 serum and peroxidase-conjugated anti-rabbit IgG. A TMB Microwell Peroxidase Substrase was added to the wells, and the incorporated thymosin β4 was measured spectrophotometrically at 450 nm.
To analyze kinetics of the incorporation of thymosin β4 into different fibrin(ogen) fragments, they were immobilized onto the wells of microliter plates (as described above, except that the concentration of all fragments was 20 μg/mL) and incubated with several concentrations of thymosin β4 in the presence of 10 μg/L thrombin-activated factor XIIIa. The incubation mixtures were inhibited every 15 min during 1 hour of incubation by the addition of iodacetamide to final concentration 10 mM. Incorporated thymosin β4 at each time point was detected with rabbit anti-thymosin β4 serum as described above. The initial rates of the reaction of incorporation (V) at different concentrations of thymosin β4 were determined from the slopes of the reaction time course plots and expressed as tangent α=A450/t (min), where A450 represents absorbance at 450 nm in optical units (o.u) which is proportional to the amount of incorporated thymosin β4. […]

thymosin β4
non-covalent interaction with Aα392-610 sub-fragment (ELISA) (non-activated factor XIII or without it): no significant non-covalent interaction
incorporation into immobilized Aα392-610 sub-fragment (ELISA) (presence of factor XIIIa): incorporated effectively
Km (thrombin-activated factor XIIIa, Lineweaver-Burk plot, read-out: apparent Michaelis constant (Km) for incorporation into the Aα392-610 sub-fragment): 8.6 ± 3.7 µM
